Values belong to the binder of their own block, whether it stands above or below them.
Tests used:
[1] = target: T1, CD22-Fc peptide (R&D systems) (UniProt P20273 20-687); assay: flow cytometry, CAR T cells stained with CD22-Fc then anti-Fc AF647
T1 construct: Bought reagent (R&D systems); not shown: Fc part of the bought reagent
T1 sequence (looked up): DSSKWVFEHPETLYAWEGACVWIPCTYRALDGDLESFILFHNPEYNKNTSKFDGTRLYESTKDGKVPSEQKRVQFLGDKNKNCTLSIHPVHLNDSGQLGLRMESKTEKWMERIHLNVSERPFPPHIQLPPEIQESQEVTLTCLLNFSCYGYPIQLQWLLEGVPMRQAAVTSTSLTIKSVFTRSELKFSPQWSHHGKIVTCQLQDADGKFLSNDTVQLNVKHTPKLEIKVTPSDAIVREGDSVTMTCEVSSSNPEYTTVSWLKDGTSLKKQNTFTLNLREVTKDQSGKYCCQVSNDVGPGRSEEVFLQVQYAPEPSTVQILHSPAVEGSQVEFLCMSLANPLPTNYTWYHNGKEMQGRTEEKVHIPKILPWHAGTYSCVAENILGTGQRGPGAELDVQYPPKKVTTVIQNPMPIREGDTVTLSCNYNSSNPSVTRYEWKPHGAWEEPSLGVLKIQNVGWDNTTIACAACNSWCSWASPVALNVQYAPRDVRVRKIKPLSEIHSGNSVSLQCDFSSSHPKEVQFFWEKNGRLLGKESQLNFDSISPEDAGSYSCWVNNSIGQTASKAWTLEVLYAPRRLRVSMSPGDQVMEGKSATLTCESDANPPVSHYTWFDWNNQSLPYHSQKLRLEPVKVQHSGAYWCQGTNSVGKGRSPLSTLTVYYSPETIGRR
Description: (§1) For CAR surface expression, TSLPR Fc, CD19Fc and CD22Fc peptide (R&D systems, Minneapolis, Minn.) were used followed anti Fc-AF647 (Jackson ImmunoResearch, West Grove, Pa.). T cell subtypes was further identified with anti-CD4 antibody conjugated to VioBlue fluorophore (Miltenyi Biotec Bergisch Gladbach, Germany). Dead cells in all studies were excluded by 7AAD staining (BD Biosciences, San Jose, Calif.). Flow data were analyzed with MACSQuantify software.
To develop the tandem CD22 and TSLPR targeting CARs, CD22-directed scFv 16P17 was used in either membrane-proximal or membrane-distal orientation (construct D0103 and D0104, respectively). For TSLPR-targeting, scFv 3G11 was used. Surface expression of the tandem TSLPR×CD22 CAR incorporating the human ScFv 16P17 together with the TSLPR scFv 3G11, when the TSLPR scFv is positioned in the membrane-distal orientation (D0103), or in the membrane-proximal orientation (D0104) is shown in FIG. 5. Specific detection of each scFv domain within the CAR structure was facilitated by CAR T cell staining with TSLPR-Fc peptide, or CD22-Fc peptide, followed by a secondary staining with anti-Fc AF647-labeled reagent, and detected in the APC channel by flow cytometry. In CAR construct D0103, in which CD22 scFv was membrane-proximal and the TSLPR scFv was membrane-distal, the TSLPR scFv was detected at 26% of the transduced cells, and CD22 scFv was detected at 11%. In CAR construct D0104 with the opposite binder orientation (i.e. the CD22 scFv was membrane-distal, and the TSLPR scFv was membrane-proximal), the detection levels were 75% and 39% for scFv TSLPR and CD22, respectively (FIG. 5).
The surface expression of the tandem TSLPR×CD22 CAR incorporating the human ScFv m971 in membrane-proximal orientation (D0111), and in the membrane-distal orientation (D0112) is shown in FIG. 8. Specific detection of each scFv domain within the CAR structure was facilitated by CAR T cell staining with TSLPR-Fc peptide, or CD22-Fc peptide, followed by a secondary staining with anti-Fc AF647-labeled reagent and detection in the APC channel by flow cytometry. In CAR construct D0111, in which CD22 scFv was membrane-proximal and the TSLPR scFv was membrane-distal, the TSLPR scFv was detected at 34% of the transduced cells, and CD22 scFv was detected at 11%.

[2] = target: T2, TSLPR-Fc peptide (R&D systems) (UniProt Q9HC73 25-231); assay: flow cytometry, CAR T cells stained with TSLPR-Fc then anti-Fc AF647
T2 construct: Bought reagent (R&D systems); also called TSLPR-Fc reagent; not shown: Fc part of the bought reagent
T2 sequence (looked up): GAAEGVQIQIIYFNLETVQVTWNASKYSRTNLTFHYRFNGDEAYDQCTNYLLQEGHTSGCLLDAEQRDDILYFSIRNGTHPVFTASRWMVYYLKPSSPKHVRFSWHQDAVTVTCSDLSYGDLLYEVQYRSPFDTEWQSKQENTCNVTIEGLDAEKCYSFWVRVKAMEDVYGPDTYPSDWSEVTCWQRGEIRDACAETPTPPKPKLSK
Description: as §1, with “Flow cytometric analysis was performed to detect the CAR molecule surface expression. Half million of harvested primary T cells were washed and stained with cold AutoMACS buffer supplemented with 0.5% bovine serum albumin (Miltenyi Biotec, Bergisch Gladbach, Germany), and resuspended in 200 ul Running Buffer before acquired by MACSQuant®10 Analyzer (Miltenyi Biotec Bergisch Gladbach, Germany). For” for “For”
Specific detection of each scFv domain within the CAR structure was facilitated by CAR T cell staining with TSLPR-Fc peptide, or CD19-Fc peptide, followed by a secondary staining with anti-Fc AF647-labeled reagent, and fluorescence was detected in the APC channel. In CAR construct D0101, in which CD19 scFv was membrane-proximal and the TSLPR scFv was membrane-distal, the TSLPR scFv was detected at 44% of the transduced cells, and CD19 scFv was detected at 31%. In CAR construct D0102 with the reverse binder orientation (i.e. the TSLPR scFv membrane-proximal, and CD19 scFv membrane-distal), the detection levels were 85% and 75% for scFv TSLPR and CD19, respectively (FIG. 2).

[3] = target: T3, recombinant human CD22 (labeled) (human, UniProt P20273 20-687, limits assumed); assay: flow cytometry of yeast-displayed scFv with decreasing amounts of labeled CD22
T3 construct: Labeled antigen titrated on yeast; It may be CD22-Fc; also called labeled CD22
T3 sequence (looked up): T1 sequence (looked up)
Description: After electroporation, the resulting mutant library was then grown overnight at 30° C. for 16 hours in SDCAA medium and then switched into SGCAA medium at 30° C. for another 16 hours. The mutant library was then sorted through MACS (immunomagnetic column, Miltenyi Biotec) with CD22-Fc as the capture antigen to downsize the library and to increase the population of mutants that could bind to CD22-Fc. The strongest binders were then selected by double staining the pools with Anti-c-Myc-Alexa 488 and […] and selecting for the binders that had the highest binding affinities as well as c-Myc expression levels. This process was then repeated two more times, until flow cytometry of yeast particles with fluorescently tagged antigen yielded average binding affinities of the mutant pools that were increased over the starting construct. Binding affinities were estimated by flow cytometry of yeast pools using decreasing amounts of labeled CD22.

- percent of transduced T cells stained by antigen-Fc [1]: 39%
- percent of transduced T cells stained by antigen-Fc [2]: 73%
B1: D0112 (EF-1a-CD22 (m971)-TSLPR CD8 BBz) (other)
chain: QVQLQQSGPGLVKPSQTLSLTCAISGDSVSSNSAAWNWIRQSPSRGLEWLGRTYYRSKWYNDYAVSVKSRITINPDTSKNQFSLQLNSVTPEDTAVYYCAREVTGDLEDAFDIWGQGTMVTVSSGGGGSGGGGSGGGGSDIQMTQSPSSLSASVGDRVTITCRASQTIWSYLNWYQQRPGKAPNLLIYAASSLQSGVPSRFSGRGSGTDFTLTISSLQAEDFATYYCQQSYSIPQTFGQGTKLEIKGGGGSGGGGSGGGGSGGGGSGGGGSQVTLKESGPGILKPSQTLSLTCSFSGFSLSTSGMGVGWIRQPSGKGLEWLAHIWWDDDKYYNPSLKSQLTISKDTSRNQVFLKITSVDTADTATYYCSRRPRGTMDAMDYWGQGTSVTVSSGGGGSGGGGSGGGGSDIVMTQAASSLSASLGDRVTISCRASQDISKYLNWYQQKPDGTVKLLIYYTSRLHSGVPSRFSGSGSGTDYSLTIRNLEQEDIATYFCQQVYTLPWTFGGGTKLEIKAAATTTPAPRPPTPAPTIASQPLSLRPEACRPAAGGAVHTRGLDFACDIYIWAPLAGTCGVLLLSLVITLYCKRGRKKLLYIFKQPFMRPVQTTQEEDGCSCRFPEEEEGGCELRVKFSRSADAPAYQQGQNQLYNELNLGRREEYDVLDKRRGRDPEMGGKPRRKNPQEGLYNELQKDKMAEAYSEIGMKGERRRGKGHDGLYQGLSTATKDTYDALHMQALPPR
notes: Tandem chimeric antigen receptor on human primary T cells: leader, CD22 scFv m971 (membrane-distal), (GGGGS)5, TSLPR scFv 3G11, CD8 hinge/TM, 4-1BB, CD3 zeta; also called CAR 22m971-TSLPR BBz

- EC50 [3]: < 0.01 µg/mL
B2: human anti-CD22 ScFv binder 16P17 (scFv, V domains shown)
VH: QVQLQQSGPGLVKHSQTLSLTCAISGDSVSSNSAAWNWIRQSPSRGLEWLGRTYYRSKWYNDYAVSVKSRITINPDTSKNQFSLQLNSVTPEDTAVYYCAQEVEPHDAFDIWGQGTMVTVSS
VL: DIQMTQSPSSVYASVGDKVTITCRASQDVSGWLAWYQQKPGLAPQLLISGASTLQGEVPSRFSGSGSGTDFTLTISSLQPEDFATYYCQQAKYFPYTFGQGTKLEIK
notes: In the CARs the order is VH-(GGGGS)3-VL; also called CD22 scFv 16P17

— US20210379110A1 (LENTIGEN TECHNOLOGY, published 2021)
